In the supplement of paper PMC7877785:
± gives the uncertainty stated by the source.

Experiment: self-splicing fitness, log relative to wild type (ln ratio); higher = more splicing; Tetrahymena group I intron in knt gene, E. coli kanamycin selection, DiMSum; sequences stand for … in CUCUCU…GGAGGGAAAAGUUAUCAGGCAUGCACCUGGUAGCUAGUCUUUAAACCAAUAGAUUGCAUCGGUUUAAAAGGCAAGACCGUCAAAUUGCGGGAAAGGGGUCAACAGCCGUUCAGUACCAAGUCUCAGGGGAAACUUUGAGAUGGCCUUGCAAAGGGUAUGGUAAUAAGCUGACGGACAUGGUCCUAACCACGCAGCCAAGUCCUAAGUCAACAGAUCUUCUGUUGAUAUGGAUGCAGUUCACAGACUAAAUGUCGGUCGGGGAAGAUGUAUUCUUCUCAUAAGAUAUAGUCGGACCUCUCCUUAAUGGGAGCUAGCGGAUGAAGUGAUGCAACACUGGAGCCGCUGGGAACUAAUUUGUAUGCGAAAGUAUAUUGAUUAGUUUUGGAGUACUCGUGGUCG
Summary of the method: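 A randomised library covering all eight P1ex-region intron nucleotides was built with the intron in the knt kanamycin-resistance gene on pET-22b(+) and held in E. coli BL21(DE3). Cells were grown overnight at 37°C or 30°C on LB agar, with or without 25 μg/mL kanamycin, plus 100 μg/mL carbenicillin, 50 μM IPTG and 0.2% rhamnose, and pooled colonies were amplicon-sequenced on an Illumina HiSeq 2500. DiMSum fitness is the error-weighted combination of wild-type-normalised replicate fold changes, kanamycin versus none.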

Row | Sequence | self-splicing fitness (ln) (30 °C) | self-splicing fitness (ln) (37 °C)
1 | ACCCAGCAAUAUUACGUGAA | -0.191 ± 0.041 | 0.202 ± 0.063
2 | CUGAAGCAAUAUUACGUGGA | -4.08 ± 0.3 | -2.63 ± 0.27
3 | UGCGAGCAAUAUUACGUCAU | -4.84 ± 0.46 | -2.95 ± 0.23
4 | CCGGAGCAAUAUUACGCUUA | -2.45 ± 0.24 | -3.19 ± 0.35
5 | GUCAAGCAAUAUUACGAACG | -2.06 ± 0.15 | -1.27 ± 0.15
6 | AGGUAGCAAUAUUACGAUAC | -2.318 ± 0.021 | -1.16 ± 0.037
7 | CGUCAGCAAUAUUACGAGGU | -3.81 ± 0.47 | -3.03 ± 0.35
8 | AUCGAGCAAUAUUACGGGCU | -4.05 ± 0.23 | -2.94 ± 0.26
9 | CGUCAGCAAUAUUACGGAUC | -1.12 ± 0.051 | -0.0121 ± 0.069
10 | GACUAGCAAUAUUACGCUGG | -3.18 ± 0.21 | -2.13 ± 0.25
11 | CACCAGCAAUAUUACGAGCG | -0.154 ± 0.066 | 0.288 ± 0.086
12 | UCCUAGCAAUAUUACGCCCC | -2.75 ± 0.45 | -2.12 ± 0.42
13 | GGUGAGCAAUAUUACGACGA | -1.32 ± 0.22 | -0.954 ± 0.34
14 | UGCAAGCAAUAUUACGCCGG | -2.06 ± 0.13 | -0.615 ± 0.17
15 | UAUAAGCAAUAUUACGCUGG | -1.44 ± 0.13 | -0.93 ± 0.18
16 | UUCUAGCAAUAUUACGGGGA | -0.859 ± 0.21 | -0.995 ± 0.21
17 | AAUCAGCAAUAUUACGAACU | -0.125 ± 0.05 | 0.389 ± 0.077
18 | CCUGAGCAAUAUUACGCGAG | -4.35 ± 0.42 | -2.63 ± 0.28
19 | AGGUAGCAAUAUUACGUGCG | -0.955 ± 0.014 | -0.358 ± 0.033
20 | AUAUAGCAAUAUUACGAUGA | -0.834 ± 0.16 | -0.885 ± 0.17
21 | UGCCAGCAAUAUUACGUGGU | -3.85 ± 0.21 | -2.83 ± 0.19
22 | UUUUAGCAAUAUUACGAUCG | -0.15 ± 0.26 | 
23 | GCCUAGCAAUAUUACGUUAA | -1.86 ± 0.13 | -1.28 ± 0.13
24 | UCACAGCAAUAUUACGUCAU | -3.09 ± 0.17 | -1.43 ± 0.12
25 | UCGAAGCAAUAUUACGUCUU | -3.87 ± 0.14 | -2.29 ± 0.15
26 | GCACAGCAAUAUUACGAUAU | -0.993 ± 0.056 | -0.54 ± 0.071

Row | Sequence | self-splicing fitness (ln) (30 °C) | self-splicing fitness (ln) (37 °C)
27 | AUCUAGCAAUAUUACGUAGG | -1.96 ± 0.14 | -0.273 ± 0.21
28 | CGAAAGCAAUAUUACGUGCU | -3.73 ± 0.18 | -2.41 ± 0.18
29 | UUGAAGCAAUAUUACGGUGU | -3.13 ± 0.17 | -1.16 ± 0.15
30 | CGCCAGCAAUAUUACGCGGG | -4.25 ± 0.2 | -3.11 ± 0.24
31 | AUCCAGCAAUAUUACGAGUU | -1.33 ± 0.063 | -0.782 ± 0.077
32 | UAUGAGCAAUAUUACGCCUU | -3.19 ± 0.29 | -2.11 ± 0.34
33 | ACGUAGCAAUAUUACGCAAC | -2.74 ± 0.31 | -2.17 ± 0.35
34 | CCCUAGCAAUAUUACGCCGG | -3.09 ± 0.17 | -1.6 ± 0.22
35 | GCUUAGCAAUAUUACGAAGU | -3.26 ± 0.21 | -2.27 ± 0.21
36 | UAGAAGCAAUAUUACGCACC | -2.13 ± 0.27 | -1.44 ± 0.25
37 | GAUAAGCAAUAUUACGUGAC | -2.55 ± 0.32 | -0.818 ± 0.3
38 | CCCAAGCAAUAUUACGCAAG | -3.34 ± 0.19 | -2.86 ± 0.22
39 | GAAAAGCAAUAUUACGCCGA | -1.01 ± 0.2 | -0.824 ± 0.23
40 | AACAAGCAAUAUUACGAGCC | -3.25 ± 0.47 | -2.09 ± 0.36
41 | CGGAAGCAAUAUUACGUUAA | -3.47 ± 0.36 | -3.06 ± 0.25
42 | AAAGAGCAAUAUUACGUAUC |  | -1.57 ± 0.27
43 | AUUCAGCAAUAUUACGCAGG | -1.26 ± 0.12 | -0.594 ± 0.16
44 | GACUAGCAAUAUUACGUAGU | -2.84 ± 0.18 | -2.28 ± 0.27
45 | GAGUAGCAAUAUUACGAGGC |  | -2.86 ± 0.44
46 | CGGAAGCAAUAUUACGGACG | -3 ± 0.27 | -2.12 ± 0.44
47 | UCUAAGCAAUAUUACGACUC | -3.61 ± 0.48 | -2.43 ± 0.42
48 | UAAUAGCAAUAUUACGGAAC | -3.01 ± 0.2 | -0.714 ± 0.16
49 | ACUCAGCAAUAUUACGUGUU | -3.14 ± 0.1 | -1.28 ± 0.088
50 | GACAAGCAAUAUUACGCACG | -2.2 ± 0.13 | -1.07 ± 0.17
51 | CAUGAGCAAUAUUACGUGAC | -3.75 ± 0.25 | 
52 | AACGAGCAAUAUUACGACGC | -2 ± 0.14 | -0.785 ± 0.18

Row | Sequence | self-splicing fitness (ln) (30 °C) | self-splicing fitness (ln) (37 °C)
53 | GAUCAGCAAUAUUACGACUC | -0.0915 ± 0.14 | -0.146 ± 0.15
54 | GUUAAGCAAUAUUACGAAGC | -2.32 ± 0.41 | -1.82 ± 0.3
55 | UUAGAGCAAUAUUACGAAGU | -3.03 ± 0.21 | -1.98 ± 0.28
56 | UCAAAGCAAUAUUACGUAGA | -1.47 ± 0.082 | -0.85 ± 0.098
57 | AUUUAGCAAUAUUACGGUUA | -0.84 ± 0.16 | -0.183 ± 0.13
58 | GUACAGCAAUAUUACGCGCC | -2.15 ± 0.21 | -1.49 ± 0.34
59 | CUAAAGCAAUAUUACGAAAU | -3.55 ± 0.28 | -2.01 ± 0.46
60 | GGAAAGCAAUAUUACGCUUA | -0.976 ± 0.17 | -0.998 ± 0.19
61 | GGCUAGCAAUAUUACGCAGA | -1.3 ± 0.1 | -0.502 ± 0.11
62 | UUAGAGCAAUAUUACGCUGA | -2.6 ± 0.21 | -0.656 ± 0.28
63 | CAUGAGCAAUAUUACGCCUG | -2.93 ± 0.21 | -2.02 ± 0.35
64 | AACCAGCAAUAUUACGACAG | -2.65 ± 0.083 | -0.775 ± 0.099
65 | AGCUAGCAAUAUUACGAUAG | -3.51 ± 0.2 | -2.84 ± 0.23
66 | UUUGAGCAAUAUUACGAUUU | -3.28 ± 0.24 | -2.05 ± 0.27
67 | GUCUAGCAAUAUUACGUGGC | -2.84 ± 0.44 | -3.01 ± 0.43
68 | AGGCAGCAAUAUUACGCACU | -1.3 ± 0.11 | -0.863 ± 0.17
69 | CACCAGCAAUAUUACGACGG | -0.253 ± 0.078 | 0.0217 ± 0.091
70 | CAGGAGCAAUAUUACGAGCC | -2.71 ± 0.29 | -2.44 ± 0.49
71 | CUCAAGCAAUAUUACGGAGU | -3.52 ± 0.17 | -3.04 ± 0.18
72 | UAGCAGCAAUAUUACGACGA | -0.341 ± 0.07 | 0.256 ± 0.079
73 | ACAGAGCAAUAUUACGCAUG | -2.9 ± 0.12 | -1.95 ± 0.13
74 | GAACAGCAAUAUUACGAAAG | -3.62 ± 0.18 | -1.58 ± 0.13
75 | UGGAAGCAAUAUUACGUACU | -0.516 ± 0.094 | -0.023 ± 0.098
76 | UAGGAGCAAUAUUACGGCGA | -1.51 ± 0.17 | -1.46 ± 0.18
